Measurements published in the supplement of paper PMC7877785.
± gives the uncertainty stated by the source.

Test: self-splicing fitness, log relative to wild type (ln ratio); higher = more splicing; Tetrahymena group I intron in knt gene, E. coli kanamycin selection, DiMSum; sequences stand for … in CUCUCU…GGAGGGAAAAGUUAUCAGGCAUGCACCUGGUAGCUAGUCUUUAAACCAAUAGAUUGCAUCGGUUUAAAAGGCAAGACCGUCAAAUUGCGGGAAAGGGGUCAACAGCCGUUCAGUACCAAGUCUCAGGGGAAACUUUGAGAUGGCCUUGCAAAGGGUAUGGUAAUAAGCUGACGGACAUGGUCCUAACCACGCAGCCAAGUCCUAAGUCAACAGAUCUUCUGUUGAUAUGGAUGCAGUUCACAGACUAAAUGUCGGUCGGGGAAGAUGUAUUCUUCUCAUAAGAUAUAGUCGGACCUCUCCUUAAUGGGAGCUAGCGGAUGAAGUGAUGCAACACUGGAGCCGCUGGGAACUAAUUUGUAUGCGAAAGUAUAUUGAUUAGUUUUGGAGUACUCGUGGUCG
Outline: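 A randomised library covering all eight P1ex-region intron nucleotides was built with the intron in the knt kanamycin-resistance gene on pET-22b(+) and held in E. coli BL21(DE3). Cells were grown overnight at 37°C or 30°C on LB agar, with or without 25 μg/mL kanamycin, plus 100 μg/mL carbenicillin, 50 μM IPTG and 0.2% rhamnose, and pooled colonies were amplicon-sequenced on an Illumina HiSeq 2500. DiMSum fitness is the error-weighted combination of wild-type-normalised replicate fold changes, kanamycin versus none.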

Sequence	self-splicing fitness (ln) (30 °C)	self-splicing fitness (ln) (37 °C)
GGUAAGCAAUAUUACGGGAA	-2.54 ± 0.39	-2.06 ± 0.32
GGUAAGCAAUAUUACGGGAC	-2.69 ± 0.29	-1.27 ± 0.2
GGUAAGCAAUAUUACGGGAG		-2.88 ± 0.34
GGUAAGCAAUAUUACGGGCA	-0.438 ± 0.082	0.103 ± 0.1
GGUAAGCAAUAUUACGGUCG	-0.945 ± 0.066	-0.215 ± 0.1
GGUAAGCAAUAUUACGUACG	-0.395 ± 0.11	-0.415 ± 0.12
GGUAAGCAAUAUUACGUCGA		-0.708 ± 0.25
GGUAAGCAAUAUUACGUGAU	-1.64 ± 0.099	-1.68 ± 0.12
GGUAAGCAAUAUUACGUUUG		-2.56 ± 0.21
GGUCAGCAAUAUUACGAAGU	-0.729 ± 0.076	-0.336 ± 0.1
GGUCAGCAAUAUUACGAGAA	-1.23 ± 0.47	-2.01 ± 0.38
GGUCAGCAAUAUUACGAUCC		-0.912 ± 0.18
GGUCAGCAAUAUUACGAUCU	-1.8 ± 0.17	-1.93 ± 0.24
GGUCAGCAAUAUUACGCCAA	-1.17 ± 0.25	-2.06 ± 0.22
GGUCAGCAAUAUUACGCCGA		-2.65 ± 0.48
GGUCAGCAAUAUUACGCUGU	-3.34 ± 0.21	-1.62 ± 0.18
GGUCAGCAAUAUUACGGAAG	-2.27 ± 0.2	-1.58 ± 0.23
GGUCAGCAAUAUUACGGACG	-0.915 ± 0.11	0.0247 ± 0.16
GGUCAGCAAUAUUACGGCCA	-2.33 ± 0.19	-0.589 ± 0.17
GGUCAGCAAUAUUACGGUUU	-0.421 ± 0.074	0.264 ± 0.099
GGUCAGCAAUAUUACGUAAA	0.301 ± 0.14	0.672 ± 0.18
GGUCAGCAAUAUUACGUAAU	-0.42 ± 0.11	0.68 ± 0.14
GGUCAGCAAUAUUACGUAGA	-0.689 ± 0.081	-0.164 ± 0.096
GGUCAGCAAUAUUACGUAGG	-2.33 ± 0.15	-1.84 ± 0.18
GGUCAGCAAUAUUACGUCUU	0.322 ± 0.078	0.402 ± 0.089

Sequence	self-splicing fitness (ln) (30 °C)	self-splicing fitness (ln) (37 °C)
GGUCAGCAAUAUUACGUUAU	-0.97 ± 0.092	-0.158 ± 0.1
GGUCAGCAAUAUUACGUUUC	0.000828 ± 0.13	-0.437 ± 0.14
GGUGAGCAAUAUUACGAAAC	-2.41 ± 0.24	-1.02 ± 0.27
GGUGAGCAAUAUUACGAGGU	-2.22 ± 0.29	-1.68 ± 0.27
GGUGAGCAAUAUUACGAUAU	-2.31 ± 0.2	-1.83 ± 0.23
GGUGAGCAAUAUUACGAUCA	-1.24 ± 0.13	-0.356 ± 0.15
GGUGAGCAAUAUUACGCAUG	-1.48 ± 0.11	-0.697 ± 0.15
GGUGAGCAAUAUUACGCAUU	-1.28 ± 0.25	-1.89 ± 0.34
GGUGAGCAAUAUUACGCGAU	-3.7 ± 0.46	
GGUGAGCAAUAUUACGCUAG		-1.65 ± 0.45
GGUGAGCAAUAUUACGCUCG		-1.37 ± 0.4
GGUGAGCAAUAUUACGCUGG	-2.87 ± 0.19	-1.12 ± 0.16
GGUGAGCAAUAUUACGCUGU	-3.68 ± 0.34	-1.64 ± 0.27
GGUGAGCAAUAUUACGGACA	-1.48 ± 0.17	-0.688 ± 0.16
GGUGAGCAAUAUUACGGCGA	-1.1 ± 0.12	-1.39 ± 0.14
GGUGAGCAAUAUUACGGCGG	-3.44 ± 0.23	-1.73 ± 0.35
GGUGAGCAAUAUUACGGGAA	-1.89 ± 0.3	-2.5 ± 0.48
GGUGAGCAAUAUUACGUAAA	-2.79 ± 0.3	-1.45 ± 0.31
GGUGAGCAAUAUUACGUAAC	-2.35 ± 0.43	-1.22 ± 0.28
GGUGAGCAAUAUUACGUUAA	-1.89 ± 0.18	-1.09 ± 0.24
GGUGAGCAAUAUUACGUUUA	-3.01 ± 0.28	-1.44 ± 0.18
GGUUAGCAAUAUUACGAAUC	-1.76 ± 0.16	-1.06 ± 0.24
GGUUAGCAAUAUUACGCAAG	-2.45 ± 0.16	-1.01 ± 0.12
GGUUAGCAAUAUUACGCGAG	-1.9 ± 0.2	-0.416 ± 0.13
GGUUAGCAAUAUUACGCUCC	-1.71 ± 0.39	0.76 ± 0.48

Sequence	self-splicing fitness (ln) (30 °C)	self-splicing fitness (ln) (37 °C)
GGUUAGCAAUAUUACGCUGC	-1.38 ± 0.26	
GGUUAGCAAUAUUACGGACA	-0.743 ± 0.12	0.373 ± 0.15
GGUUAGCAAUAUUACGGCCG	-0.999 ± 0.19	-0.019 ± 0.25
GGUUAGCAAUAUUACGGGAU	-3.13 ± 0.26	-1.4 ± 0.24
GGUUAGCAAUAUUACGGGCU	-3.26 ± 0.41	-1.68 ± 0.32
GGUUAGCAAUAUUACGGGUG	-1.7 ± 0.1	-1.08 ± 0.12
GGUUAGCAAUAUUACGUAGG	-2.51 ± 0.18	-1.03 ± 0.14
GGUUAGCAAUAUUACGUGCA	-0.869 ± 0.19	-0.121 ± 0.18
GGUUAGCAAUAUUACGUGGA	-2.72 ± 0.2	-1.08 ± 0.14
GGUUAGCAAUAUUACGUUCA	0.228 ± 0.14	-0.557 ± 0.13
GGUUAGCAAUAUUACGUUUA	-1.5 ± 0.096	-0.992 ± 0.088
GGUUAGCAAUAUUACGUUUU	-1.03 ± 0.055	-0.945 ± 0.083
GUAAAGCAAUAUUACGAAAC	-1.83 ± 0.13	-0.6 ± 0.13
GUAAAGCAAUAUUACGAACU	-0.845 ± 0.11	-0.0974 ± 0.14
GUAAAGCAAUAUUACGAAUC	-1.71 ± 0.14	-0.902 ± 0.14
GUAAAGCAAUAUUACGACGA	0.208 ± 0.073	1.1 ± 0.1
GUAAAGCAAUAUUACGACUA	-0.649 ± 0.097	-0.957 ± 0.11
GUAAAGCAAUAUUACGAUAG	-1.08 ± 0.075	-0.747 ± 0.11
GUAAAGCAAUAUUACGAUUG	-2.98 ± 0.18	-0.942 ± 0.22
GUAAAGCAAUAUUACGAUUU	-0.348 ± 0.051	0.232 ± 0.065
GUAAAGCAAUAUUACGCAUC	-1.36 ± 0.11	-0.97 ± 0.15
GUAAAGCAAUAUUACGCCAC		-1.86 ± 0.24
GUAAAGCAAUAUUACGCCGG	-1.27 ± 0.13	0.13 ± 0.17
GUAAAGCAAUAUUACGCGCU	-1.4 ± 0.075	-0.523 ± 0.096
GUAAAGCAAUAUUACGCGGU	-2.79 ± 0.12	-1.87 ± 0.15

Sequence	self-splicing fitness (ln) (30 °C)	self-splicing fitness (ln) (37 °C)
GUAAAGCAAUAUUACGCUAU	-1.22 ± 0.087	-0.23 ± 0.1
GUAAAGCAAUAUUACGCUCG	-0.0287 ± 0.1	0.709 ± 0.13
GUAAAGCAAUAUUACGGAAA	-2.68 ± 0.14	-1.38 ± 0.18
GUAAAGCAAUAUUACGGAAU	-0.906 ± 0.099	-0.779 ± 0.15
GUAAAGCAAUAUUACGGACG	-1.06 ± 0.12	0.298 ± 0.15
GUAAAGCAAUAUUACGGCCG	-0.257 ± 0.087	0.625 ± 0.12
GUAAAGCAAUAUUACGGGUA	-1.02 ± 0.078	-0.464 ± 0.085
GUAAAGCAAUAUUACGGUGU	-1.5 ± 0.056	-0.647 ± 0.07
GUAAAGCAAUAUUACGUAUC	-1.1 ± 0.07	-0.568 ± 0.098
GUAAAGCAAUAUUACGUGCC	-3.19 ± 0.16	-1.93 ± 0.17
GUAAAGCAAUAUUACGUGCG	-0.447 ± 0.065	-0.538 ± 0.069
GUAAAGCAAUAUUACGUUGA	-1.97 ± 0.071	-0.945 ± 0.098
GUAAAGCAAUAUUACGUUGC	-2.38 ± 0.1	-3.2 ± 0.26
GUAAAGCAAUAUUACGUUGG	-1.84 ± 0.12	-1.56 ± 0.13
GUACAGCAAUAUUACGACGU	-0.603 ± 0.075	0.215 ± 0.081
GUACAGCAAUAUUACGAGAG	-2.62 ± 0.29	-2.64 ± 0.25
GUACAGCAAUAUUACGAGCG	-2.59 ± 0.11	-0.624 ± 0.098
GUACAGCAAUAUUACGAGGU	-4.68 ± 0.29	-1.97 ± 0.16
GUACAGCAAUAUUACGAUAG	-3.23 ± 0.16	-0.84 ± 0.13
GUACAGCAAUAUUACGCAAA	-0.875 ± 0.14	-2.48 ± 0.28
GUACAGCAAUAUUACGCCUG	-2.24 ± 0.25	-0.634 ± 0.19
GUACAGCAAUAUUACGCUCU	-0.911 ± 0.091	-0.379 ± 0.11
GUACAGCAAUAUUACGCUUG	-1.97 ± 0.098	-1.1 ± 0.12
